US20240150440A1 (LUMEN BIOSCIENCE, published 2024)

B1: PP1106 MBP-5HVZ-PAPA-RN-21-H6 (VHH)
VHH: QVQLVESGGGLVQPGGSLRLSCAASGLQTSDNAMHWFRQAPGKNRELVAGLTSGTSRNYGDSVKGRFTISRDNAKNTVYLQMNSLKPEDTAVYYCAAFPDVGDASSIGFVYWGQGTQVTVSS
notes: Form: Dimer
B2: PP1108 MBP-5HVZ-PAPA-RN-23-H6 (VHH)
VHH: QVQLVESGGGLVQPGGSLRLSCAASGGEKSISAAHWYRQAPGKEREFVAAITAASTTSYADSVKGRFTISRDNAKNTVYLQMNSLKPEDTAVYYCTAVLYDSYDYWGQGTQVTVSS
notes: Form: Dimer
B3: PP1153 MBP-5HVZ-PAPA-R5d-D4-H6 (VHH)
VHH: QVQLVESGGGLVQPGGSLRLSCAASGSDFTINAMHWFRQAPGKQREFVATITSTSSTAYRDSVKGRFTISRDNAKNTVYLQMNSLKPEDTAVYYCAAFAVRDADTAGWTARDYWGQGTQVTVSS
notes: Form: Dimer
B4: PP1109 MBP-5HVZ-PAPA-RN-25-H6 (VHH)
VHH: QVQLVESGGGLVQPGGSLRLSCAASGEDYSYNAAHWFRQAPGKEREWVAAINSGGGTYYADSVKGRFTISRDNAKNTVYLQMNSLKPEDTAVYYCAYLGALDRDGYDAWGQGTQVTVSS
notes: Form: Dimer
B5: PP1102 MBP-5HVZ-PAPA-RN-17-H6 (VHH)
VHH: QVQLVESGGGLVQPGGSLRLSCAASGSMYSRAVMHWFRQAPGKEREGVASIGRTGDSYYADSVKGRFTISRDNAKNTVYLQMNSLKPEDTAVYYCAADNLDVVYGNRYWGQGTQVTVSS
notes: Form: Dimer
B6: PP1115 MBP-5HVZ-PAPA-RN-31-H6 (VHH)
VHH: QVQLVESGGGLVQPGGSLRLSCAASGSTGSDYAMHWFRQAPGKDREWVAGISSYGSDSYGDSVKGRFTISRDNAKNTVYLQMNSLKPEDTAVYYCAALQASAGAGYYYDYWGQGTQVTVSS
notes: Form: Dimer
B7: PP1101 MBP-5HVZ-PAPA-RN-16-H6 (VHH)
VHH: QVQLVESGGGLVQPGGSLRLSCAASGADFSSNAMHWFRQAPGKAREFVASIDSDKSGYYADSVKGRFTISRDNAKNTVYLQMNSLKPEDTAVYYCNAYSGTDNYGYDYWGQGTQVTVSS
notes: Form: Dimer
B8: PP1114 MBP-5HVZ-PAPA-RN-30-H6 (VHH)
VHH: QVQLVESGGGLVQPGGSLRLSCAASGIPASYLNMHWFRQAPGKQREWVAGAGGTNSNYYQDSVKGRFTISRDNAKNTVYLQMNSLKPEDTAVYYCAALDGAESYDYVYPVWGQGTQVTVSS
notes: Form: Dimer
B9: PP1111 MBP-5HVZ-PAPA-RN-27-H6 (VHH)
VHH: QVQLVESGGGLVQPGGSLRLSCAASGPQFSSNAVSWFRQAPGKEREWVAGITSGGSTDYADSVKGRFTISRDNAKNTVYLQMNSLKPEDTAVYYCTAPSVSDADRRTRDYWGQGTQVTVSS
notes: Form: Dimer
B10: PP1105 MBP-5HVZ-PAPA-RN-20-H6 (VHH)
VHH: QVQLVESGGGLVQPGGSLRLSCAASGNYFEINKMHWFRQAPGKQREFVATIGSGGSTAYADSVKGRFTISRDNAKNTVYLQMNSLKPEDTAVYYCNALIYLADRRDGYYSYDYWGQGTQVTVSS
notes: Form: Dimer
B11: PP1104 MBP-5HVZ-PAPA-RN-19-H6 (VHH)
VHH: QVQLVESGGGLVQPGGSLRLSCAASGIDDSIGAMHWFRQAPGKGREFVAALSGTGTTSYADSVKGRFTISRDNAKNTVYLQMNSLKPEDTAVYYCAAAFPAGGDYWGQGTQVTVSS
notes: Form: Dimer
B12: PP912 MBP-5HVZ-S2b-G8-H6 (VHH)
VHH: QVQLVESGGGLVQPGGSLRLSCAASGSIQSYEAMHWFRQAPGKAREWVAVITWGDSTQYGDSVKGRFTISRDNAKNTVYLQMNSLKPEDTAVYYCAADVRQGYSSWGQGTQVTVSS
notes: Form: Dimer
B13: PP1103 MBP-5HVZ-PAPA-RN-18-H6 (VHH)
VHH: QVQLVESGGGLVQPGGSLRLSCAASGYYFQIVAMHWYRQAPGKEREGVAGITSTGSTYYGDSVKGRFTISRDNAKNTVYLQMNSLKPEDTAVYYCNAVSTDAQGAAEYWGQGTQVTVSS
notes: Form: Dimer
B14: PP1113 MBP-5HVZ-PAPA-RN-29-H6 (VHH)
VHH: QVQLVESGGGLVQPGGSLRLSCAASGYILSENLTAWFRQAPGKAREVVATVTSGDYTNYDDSVKGRFTISRDNAKNTVYLQMNSLKPEDTAVYYCAAGTSDWEVKWSHWGQGTQVTVSS
notes: Form: Dimer
B15: PP1154 MBP-5HVZ-PAPA-R5d-G1-H6 (VHH)
VHH: QVQLVESGGGLVQPGGSLRLSCAASGSIFGINDVHWFRQAPGKEREFVATITNGLSARYKDSVKGRFTISRDNAKNTVYLQMNSLKPEDTAVYYCAAQVYITTYELYDYWGQGTQVTVSS
notes: Form: Dimer
B16: PP930 MBP-5HVZ-R2b-D4-H6 (VHH)
VHH: QVQLVESGGGLVQPGGSLRLSCAASGSYASIASMHWFRQAPGKQREFVAGLTSGGSRIYGDSVKGRFTISRDNAKNTVYLQMNSLKPEDTAVYYCTALILHYAGMYDYWGQGTQVTVSS
notes: Form: Dimer
B17: PP1107 MBP-5HVZ-PAPA-RN-22-H6 (VHH)
VHH: QVQLVESGGGLVQPGGSLRLSCAASGSISEINLLHWFRQAPGKQREWVATMTSGGSTDYADSVKGRFTISRDNAKNTVYLQMNSLKPEDTAVYYCAADEFTKYGHGRYWGQGTQVTVSS
notes: Form: Dimer
B18: PP1110 MBP-5HVZ-PAPA-RN-26-H6 (VHH)
VHH: QVQLVESGGGLVQPGGSLRLSCAASGSISSINSMHWYRQAPGKEREWVAAVSSYGSDYYADSVKGRFTISRDNAKNTVYLQMNSLKPEDTAVYYCAARTVTGFTYGDYWGQGTQVTVSS
notes: Form: Dimer
B19: PP1099 MBP-5HVZ-PAPA-RN-12-H6 (VHH)
VHH: QVQLVESGGGLVQPGGSLRLSCAASGSSFEGNAVHWFRQAPGKNREFVATITTSTSYYYADSVKGRFTISRDNAKNTVYLQMNSLKPEDTAVYYCAARLKDRGPQSEYDYWGQGTQVTVSS
notes: Form: Dimer
B20: PP1112 MBP-5HVZ-PAPA-RN-28-H6 (VHH)
VHH: QVQLVESGGGLVQPGGSLRLSCAASGSQFSHNLMSWFRQAPGKQREFVAAITSFGSTGYADSVKGRFTISRDNAKNTVYLQMNSLKPEDTAVYYCAALSSEDTSHYPRNYWGQGTQVTVSS
notes: Form: Dimer
B21: MBP-5HVZ-R5C-E1-H6 (VHH, not shown: large carriers; small tags and cut ends)
VHH: QVQLVESGGGLVQPGGSLRLSCAASGYIFSATVMHWFRQAPGKQREGVASINSTGSSQYADSVKGRFTISRDNAKNTVYLQMNSLKPEDTAVYYCAADGADVVYGNRYWGQGTQVTVSS
B22: MBP-R5C-E3-H6 (VHH, not shown: large carriers; small tags and cut ends)
VHH: QVQLVESGGGLVQPGGSLRLSCAASGSFFSINAVHWFRQAPGKEREFVASISVGDSRSYRDSVKGRFTISRDNAKNTVYLQMNSLKPEDTAVYYCAAQIYITTYELYDYWGQGTQVTVSS
B23: MBP-5HVZ-R5C-E3-H6 (VHH, not shown: large carriers; small tags and cut ends)
VHH: B22 VHH
B24: MBP-5HVZ-R5C-A1-H6 (VHH, not shown: large carriers; small tags and cut ends)
VHH: QVQLVESGGGLVQPGGSLRLSCAASGLDVSINFMHWYRQAPGKEREGVAGITWQGSTYYADSVKGRFTISRDNAKNTVYLQMNSLKPEDTAVYYCATVWAGGTPNDYWGQGTQVTVSS
B25: MBP-R5A-A5-H6 (VHH, not shown: large carriers; small tags and cut ends)
VHH: QVQLVESGGGLVQPGGSLRLSCAASGSAFATNGLHWFRQAPGKQREFVAGITSNGSINYKDSVKGRFTISRDNAKNTVYLQMNSLKPEDTAVYYCTALLMSYGGGEEYDYWGQGTQVTVSS
B26: MBP-5HVZ-R5A-A5-H6 (VHH, not shown: large carriers; small tags and cut ends)
VHH: B25 VHH
B27: MBP-5HVZ-R2E-F4-H6 (VHH, not shown: large carriers; small tags and cut ends)
VHH: QVQLVESGGGLVQPGGSLRLSCAASGETFSSNAMHWFRQAPGKGREFVAAITSGGNDNYSDSVKGRFTISRDNAKNTVYLQMNSLKPEDTAVYYCNAPATEDTSHYPRNYWGQGTQVTVSS
B28: MBP-5HVZ-R5A-A1-H6 (VHH, not shown: large carriers; small tags and cut ends)
VHH: QVQLVESGGGLVQPGGSLRLSCAASGAELSYTAIHWFRQAPGKQREFVATINSGGSSYYADSVKGRFTISRDNAKNTVYLQMNSLKPEDTAVYYCTALLDSTYDYWGQGTQVTVSS
B29: MBP-5HVZ-R5A-D6-H6 (VHH, not shown: large carriers; small tags and cut ends)
VHH: QVQLVESGGGLVQPGGSLRLSCAASGNDWYINSAHWYRQAPGKEREFVASVSRGGSNNYRDSVKGRFTISRDNAKNTVYLQMNSLKPEDTAVYYCAALLETSSGDYTYWGQGTQVTVSS
B30: R5A-C5 (competition ELISA sample) (VHH)
VHH: QVQLVESGGGLVQPGGSLRLSCAASGDIFSINALHWFRQAPGKQREEVAAITSGGSTGYADSVKGRFTISRDNAKNTVYLQMNSLKPEDTAVYYCAAQQARGGLDSDYWGQGTQVTVSS
B31: MBP-5HVZ-R5A-D4-H6 (VHH, not shown: large carriers; small tags and cut ends)
VHH: QVQLVESGGGLVQPGGSLRLSCAASGSAMMINRTHWFRQAPGKEREGVAGITWQGSTYYADSVKGRFTISRDNAKNTVYLQMNSLKPEDTAVYYCNAVAPVHENENYWGQGTQVTVSS
B32: MBP-5HVZ-R5A-B3-H6 (VHH, not shown: large carriers; small tags and cut ends)
VHH: QVQLVESGGGLVQPGGSLRLSCAASGQLDRSNAMAWFRQAPGKGREWVASITSGASTQYADSVKGRFTISRDNAKNTVYLQMNSLKPEDTAVYYCAADRYRAIQRTQYSWGQGTQVTVSS

Target: SARS-COV-2 Wuhan Reference RBD (SARS-CoV-2, UniProt P0DTC2 319-541)
Experiment: ELISA, RBD coated

Row | Binder | EC50 [nM]
1 | B1 | 2.52
2 | B2 | 2.61
3 | B3 | 1.23
4 | B4 | 1.06
5 | B5 | 0.97
6 | B6 | 4.9
7 | B7 | 1.56
8 | B8 | 1.14
9 | B9 | 0.33
10 | B10 | 1.24
11 | B11 | 1.21
12 | B12 | 2.33
13 | B13 | 2.4
14 | B14 | 0.34
15 | B15 | 2.42
16 | B16 | 3.18
17 | B17 | 0.27
18 | B18 | 3.5
19 | B19 | 4.24
20 | B20 | 1.36

Target: T1, recombinant SARS-CoV-2 RBD with C-terminal AviTag (SARS-CoV-2, UniProt P0DTC2 319-541)
Experiment: not given

Row | Binder | IC50 [nM] | Kd [nM]
21 | B21 | 4.5 | 6.13
22 | B22 |  | ~1370
23 | B23 | 9.2 | 
24 | B24 | 10.3 | 379

Target: T1, recombinant SARS-CoV-2 RBD with …
Experiment: not given
Remark: another data set of the same source

Row | Binder | Kd [nM] | IC50 [nM]
25 | B25 | ~920 | 
26 | B26 | 24.7 | 4.4
27 | B27 | 11.4 | 6.3
28 | B28 | 29 | 3.4
29 | B29 | 35 | 223
30 | B30 | 7.04 | 1.4
31 | B31 | 21.1 | 5.7
32 | B32 | ~1200 | 35.9

Target: T1, recombinant SARS-CoV-2 RBD with …
Experiment: ELISA, competition with coated ACE2-Fc for RBD [Cont. 9]

Row | Binder | IC50 [nM]
33 | B1 | 9.7
34 | B2 | 380
35 | B4 | 29.6
36 | B5 | 2.4
37 | B6 | 11.6
38 | B7 | 13.9
39 | B8 | 3.4
40 | B9 | 9.4
41 | B10 | 7.2
42 | B11 | 3.5
43 | B13 | 53.3
44 | B14 | 4.9
45 | B17 | 3.9
46 | B18 | 156
47 | B20 | 10.5
